Data: PMC10541312 (The Journal of Experimental Medicine, 2023)
Where a chain is given by its changes, count along the chain named. Names and notes keep the numbering of the source.

How the values were obtained:
Test in all cases: BLI; biotinylated CD123 ECD wt and variants captured on streptavidin biosensors; IL-3 as analyte, 500 to 7.8 nM in PBS pH7.4; association 300 s; steady-state analysis
Conditions in all cases: both partners purified
[1] = biological target: T1, CD123 R84Q ECD (amino acids 19–305), soluble protein (human, UniProt P26951 19-305, R84Q, biotinylated (Biotinylation kit Type B) in the IL-3 BLI only)
T1 construct: human CD123 extracellular domain (ECD; amino acids 19–305); source: produced and purified by Icosagen
T1 sequence (looked up): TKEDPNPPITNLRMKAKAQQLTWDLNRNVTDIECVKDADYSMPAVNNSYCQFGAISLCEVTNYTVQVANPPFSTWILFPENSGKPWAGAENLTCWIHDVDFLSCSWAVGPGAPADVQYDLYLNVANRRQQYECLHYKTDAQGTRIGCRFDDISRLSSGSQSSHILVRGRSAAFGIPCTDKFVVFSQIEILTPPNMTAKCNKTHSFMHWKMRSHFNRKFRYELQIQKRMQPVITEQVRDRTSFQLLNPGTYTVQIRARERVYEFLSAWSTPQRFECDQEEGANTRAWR

[2] = biological target: T2, CD123 S59R ECD (amino acids 19–305), soluble protein (human, UniProt P26951 19-305, S59R, biotinylated (Biotinylation kit Type B) in the IL-3 BLI only)
T2 construct: human CD123 extracellular domain (ECD; amino acids 19–305); source: produced and purified by Icosagen
T2 sequence (looked up): T1 sequence (looked up) with S41R, Q66R

[3] = biological target: T3, CD123 S59E ECD (amino acids 19–305), soluble protein (human, UniProt P26951 19-305, S59E, biotinylated (Biotinylation kit Type B) in the IL-3 BLI only)
T3 construct: human CD123 extracellular domain (ECD; amino acids 19–305); source: produced and purified by Icosagen
T3 sequence (looked up): T1 sequence (looked up) with S41E, Q66R

[4] = biological target: T4, CD123 R84T ECD (amino acids 19–305), soluble protein (human, UniProt P26951 19-305, R84T, biotinylated (Biotinylation kit Type B) in the IL-3 BLI only)
T4 construct: human CD123 extracellular domain (ECD; amino acids 19–305); source: produced and purified by Icosagen
T4 sequence (looked up): T1 sequence (looked up) with Q66T

[5] = biological target: T5, CD123 S59P ECD (amino acids 19–305), soluble protein (human, UniProt P26951 19-305, S59P, biotinylated (Biotinylation kit Type B) in the IL-3 BLI only)
T5 construct: human CD123 extracellular domain (ECD; amino acids 19–305); source: produced and purified by Icosagen
T5 sequence (looked up): T1 sequence (looked up) with S41P, Q66R

[6] = biological target: T6, CD123 E51K ECD (amino acids 19–305), soluble protein (human, UniProt P26951 19-305, E51K, biotinylated (Biotinylation kit Type B) in the IL-3 BLI only)
T6 construct: human CD123 extracellular domain (ECD; amino acids 19–305); source: produced and purified by Icosagen
T6 sequence (looked up): T1 sequence (looked up) with E33K, Q66R

Measured: binding result

B1: IL-3 (ligand, human, UniProt P08700 20-152, looked up)
chain: APMTQTTPLKTSWVNCSNMIDEIITHLKQPPLPLLDFNNLNGEDQDILMENNLRRPNLEAFNRAVKSLQNASAIESILKNLLPCLPLATAAPTRHPIHIKDGDWNEFRRKLTFYLKTLENAQAQQTTLSLAIF
notes: human interleukin-3, recombinant, Sino Biological PN 11858-H08H; also called interleukin-3; human IL-3; source: bought: Sino Biological (PN 11858-H08H)
binds: all assays above
